Patent US20230051701A1 (Bristol-Myers Squibb, published 2023)
Changes are numbered by the printed parent chain. Several values for one entry are separate records, joined by “and”; a condition that tells them apart may be missing. Identical values can stand only once.

Key:
[1] = biological target: T1, human CD73 on cells (Calu6, NCI-H292, SK-MEL-24, human tumor cell lines, human B and T cells) (human, UniProt P21589 27-549); assay: cell-based or functional assay
T1 sequence: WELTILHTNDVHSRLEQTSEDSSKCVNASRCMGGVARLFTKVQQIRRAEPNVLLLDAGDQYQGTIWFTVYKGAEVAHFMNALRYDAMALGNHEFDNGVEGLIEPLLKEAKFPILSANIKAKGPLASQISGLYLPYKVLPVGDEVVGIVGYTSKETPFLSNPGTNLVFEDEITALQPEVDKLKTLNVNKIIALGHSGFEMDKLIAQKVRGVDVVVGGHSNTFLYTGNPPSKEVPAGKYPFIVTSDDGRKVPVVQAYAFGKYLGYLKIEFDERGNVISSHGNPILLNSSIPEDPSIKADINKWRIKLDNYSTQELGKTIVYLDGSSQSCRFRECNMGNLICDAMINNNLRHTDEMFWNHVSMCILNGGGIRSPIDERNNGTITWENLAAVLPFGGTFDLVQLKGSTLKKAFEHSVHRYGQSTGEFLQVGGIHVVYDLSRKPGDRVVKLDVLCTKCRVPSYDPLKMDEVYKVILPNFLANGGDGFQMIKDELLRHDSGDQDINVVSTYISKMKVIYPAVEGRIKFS

[2] = biological target: T1, human CD73 on cells (Calu6, NCI-H292, …); assay: cell-based or functional assay; remark: listed apart in the source
[3] = biological target: T1, human CD73 on cells (Calu6, NCI-H292, …); assay: binding titration on Calu6 cells, average of 2-6 experiments
Method: Titration binding curves were produced with CD73 antibodies on Calu6 (CD73 endogenous expressors; human pulmonary adenocarcinoma cell line), DMS114 (CD73 negative; human small cell lung cancer cell line), CHO-cynoCD73 (cynoCD73-transfected) and CHO-K1 (cynoCD73 negative), cells using Alexa Fluor® 647 Goat Anti-Human IgG (H+L) as a secondary antibody, Invitrogen Cat#A-21445, using the following method: 100000 cells were plated in 100 uL PBS+2% FBS per well and blocked for 20 min. Using a U-bottom 96-deep well plate, volumes of antibody and PBS+2% FBS were combined as dictated by Table 12 below.
An 8-point serial dilution was performed by diluting a sixth of the volume (90 uL) into 450 μL PBS+2% FBS. The cell plate was spun down for 5 minutes at 1500 rpm. 100 uL of diluted antibody was added per well of the plate. 100 uL PBS+2% FBS were added to all other wells. […] The plates were spun down at 1500 rpm for 5 min and washed in 200 uL PBS +2% FBS per well. The plates were washed again, resuspended in 200 uL 2% FBS in PBS per well and the samples were run.

[4] = biological target: T2, N-terminal domain of hCD73 (residues 26-336 of human CD73), His-tagged (human, UniProt P21589 26-336); assay: SPR, mAb captured on protein A
T2 construct: also called N-hCD73; N-hCD73-his
T2 sequence: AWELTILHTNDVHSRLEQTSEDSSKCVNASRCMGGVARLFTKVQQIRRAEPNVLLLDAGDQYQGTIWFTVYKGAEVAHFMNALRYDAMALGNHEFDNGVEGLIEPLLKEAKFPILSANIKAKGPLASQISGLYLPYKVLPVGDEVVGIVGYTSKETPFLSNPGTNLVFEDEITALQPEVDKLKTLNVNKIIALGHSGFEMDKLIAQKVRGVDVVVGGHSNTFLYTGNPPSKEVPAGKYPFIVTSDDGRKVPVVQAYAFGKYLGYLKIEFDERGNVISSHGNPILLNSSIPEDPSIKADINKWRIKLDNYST
Method: For these experiments, protein A (Pierce) was immobilized to a density of 3000 — 4000 RU on flow cells 1-4 of a CM5 sensor chip (GE Healthcare) using standard ethyl(dimethylaminopropyl) carbodiimide (EDC)/N-hydroxysuccinimide (NHS) chemistry, with ethanolamine blocking, in a running buffer of 0.01 M HEPES pH 7.4, 0.15 M NaCl, 3 mM EDTA, 0.005% v/v tween 20. […] The running buffer for the kinetic experiments was 10 mM sodium phosphate, 130 mM sodium chloride, 0.05% tween 20, pH 7.1. The surfaces were regenerated after each cycle using two 30 s pulses of 10 mM glycine pH 1.5 at a flow rate of 30 μl/min. Sensogram data was double-referenced and then fitted to a 1:1 Langmuir model using Biacore T100 evaluation software v2.0.4, to determine the association rate constant (ka), the dissociation rate constant (kd), and the equilibrium dissociation constant (KD).

[5] = biological target: T3, rhCD73 bound to his-tag magnet beads (human, UniProt P21589 27-549, limits assumed); assay: cell-based or functional assay
T3 sequence: T1 sequence

[6] = biological target: T1, human CD73 on cells (Calu6, NCI-H292, …); assay: cell-based or functional assay; remark: listed apart in the source

B1: 5F8 (antibody, human IgG1, kappa, V domains shown)
VH: EVQLVESGGGLVQPGGSLRLSCAASGFTFSSYWMHWVRQAPGKGLVWVSRIISDGSSTGYADSVKGRFTISRDNAKNTLYLQMNSLRAEDTAVYYCAREFSSGWYFDYWGQGTLVTVSS
VL: AIQLTQSPSSLSASVGDRVTITCRASQGISSALAWYQQKPGKAPKLLIYDASSLESGVPSRFSGSGSGTDFTLTISSLQPEDFATYYCQQFSSYPRTFGQGTKVEIKR
notes: IgG1za from hybridoma; predominant light chain VK1, VK2 also expressed; also called 5F8-1
[1]
  EC50 Calu6 inhibition: 8.1 nM
  EC50 H292 inhibition: 13.5 nM
  EC50 SKMEL24 inhibition: 110 nM
[2]
  IC50 (nM), cAMP HTRF assay, Calu-6 with HEK293/A2AR cells: 13.2 nM
  Ymax, cAMP HTRF assay: 80 % of 100 nM 11F11
[3]
  EC50: 11.7 nM
[4]
  Kd: 41 nM
  koff: 0.006 s⁻¹
  kon: 150000 M⁻¹ s⁻¹
[5]
  EC50 (nM), inhibition of bead-bound rhCD73 enzymatic activity: 5.76 nM

B2: 4D4 (antibody, human IgG2, kappa)
heavy: QVQLVESGGGVVQPGRSLRLSCAASGFTFSNYGMHWVRQAPGKGLEWVAVIWYDESNKYYADSVKGRFTISRDNSKNTLFLQMNSLRAEDTAVYYCARGYNSRWYPDAFDIWGQGTMVTVSSASTKGPSVFPLAPCSRSTSESTAALGCLVKDYFPEPVTVSWNSGALTSGVHTFPAVLQSSGLYSLSSVVTVPSSNFGTQTYTCNVDHKPSNTKVDKTVERKCCVECPPCPAPPVAGPSVFLFPPKPKDTLMISRTPEVTCVVVDVSHEDPEVQFNWYVDGVEVHNAKTKPREEQFNSTFRVVSVLTVVHQDWLNGKEYKCKVSNKGLPAPIEKTISKTKGQPREPQVYTLPPSREEMTKNQVSLTCLVKGFYPSDIAVEWESNGQPENNYKTTPPMLDSDGSFFLYSKLTVDKSRWQQGNVFSCSVMHEALHNHYTQKSLSLSPGK
light: not shown
notes: IgG2 from hybridoma; also called 4D4-1
[3]
  EC50: 0.82 nM
[4]
  Kd: 9.4 nM and 6.2 nM
  koff: 0.00077 s⁻¹ and 0.00049 s⁻¹
  kon: 82000 M⁻¹ s⁻¹ and 79000 M⁻¹ s⁻¹
[5]
  EC50 (nM), inhibition of bead-bound rhCD73 enzymatic activity: 5.31 nM
[6]
  EC50 (nM), CD73 internalization, Calu6, 2 h: 0.38 nM
  Ymax, CD73 internalization, Calu6, 2 h: 104 % of 100 nM 11F11

B3: 7A11 (antibody, human IgG1, kappa, V domains shown)
VH: EVQLVESGGGLVQTGRSLRLSCAASGFTFDDYAMHWVRQAPGKGLEWVSDISWNSDIIGYADSVKGRFTISRDNAKNSLYLQMNSLRAEDTALYYCAKDIYGSGSSFFDYWGQGILVTVSS
VL: DIQMTQSPSSLSASVGDRVTITCRASQYISSWLAWYQQKPEKAPKSLIYAASSLQSGVPSRFSGSGSGTDFTLTISSLQPEDFATYYCQQYHSYPPTFGQGTRLEIKR
notes: IgG1za from hybridoma; also called 7A11-1
[1]
  EC50 Calu6 inhibition: 0.95 nM
  EC50 H292 inhibition: 1.31 nM
  EC50 SKMEL24 inhibition: 3.72 nM
[2]
  IC50 (nM), cAMP HTRF assay, Calu-6 with HEK293/A2AR cells: 0.95 nM
  Ymax, cAMP HTRF assay: 45 % of 100 nM 11F11
[3]
  EC50: 0.35 nM
[4]
  Kd: 0.43 nM
  koff: 0.00038 s⁻¹
  kon: 880000 M⁻¹ s⁻¹
[5]
  EC50 (nM), inhibition of bead-bound rhCD73 enzymatic activity: 2.86 nM
[6]
  EC50 (nM), CD73 internalization, Calu6, 2 h: 2.59 nM
  Ymax, CD73 internalization, Calu6, 2 h: 50 % of 100 nM 11F11

B4: 11A6 (antibody, human IgG1, kappa, V domains shown)
VH: EVQLVESGGNLVQPGRSLRLSCAASGFTFDDYAMHWVRQAPGKGLEWVSGISWNNNDIGYADSVKGRFIISRDNAKNSLYLQMNSLRPEDTALYYCVKGYYVILTGLDYWGQGTPVTVSS
VL: B3 VL with Y28G, H92N, P96L, Q100G, R103K, L104V
notes: IgG1za from hybridoma; also called 11A6-1
[1]
  EC50 Calu6 inhibition: 2.21 nM
[2]
  IC50 (nM), cAMP HTRF assay, Calu-6 with HEK293/A2AR cells: 4.87 nM
  Ymax, cAMP HTRF assay: 84 % of 100 nM 11F11
[3]
  EC50: 1.93 nM
[4]
  Kd: 140 nM
  koff: 0.0076 s⁻¹
  kon: 55000 M⁻¹ s⁻¹
[5]
  EC50 (nM), inhibition of bead-bound rhCD73 enzymatic activity: 3.12 nM
